One molecule from article PMC8639918 (2021) can be followed below.

The test has as its target PHR2^(230–426 L348A/L358A/I362A) (rice, UniProt Q6Z156 230-426, L348A | L358A | I362A). The experiment in a line: ITC; with InsP6. On the technique in general: In ITC the heat of successive injections is recorded.

B1: SPX1^1–259 (C-terminally truncated fragment of rice SPX1) (domain or fragment)
chain: MKFGKSLSSQIVETLPEWRDKFLSYKDLKKRLKLIGGGGGGEERQAKRARVAADGGEEEAAAAAMTPEEAGFMRLLEAELDKFNSFFVEKEEEYIIRQKELQDRVARAAGRESKEELMRVRKEIVDFHGEMVLLENYSALNYTGLVKILKKYDKRTGALIRLPFIQKVLQQPFFTTDLLYKLVKQCEAMLDQLLPSNELSVSSEDGRGDSTNEDKPSNPSSSLVNGGTIPELDEIEYMESMYMKGTVAALRSLKEIRSG
The Kd is the constant that tells how readily two partners part at equilibrium. A low value points to a tighter complex. B1 returned a Kd of 140 nM.
